As a reminder, the EC50 is the concentration at which the effect is half-maximal.

We go through 15 variants from paper PMC10042821 (2023).

To fix the notation:
B1: eukaryotic translation factor 5A-1 (eIF5A-1), residues 15-151 [human] / deoxyhypusine synthase, wild type, His-tagged [human] (parent complex)
chain 1: not shown
chain 2: MEGSLEREAPAGALAAVLKHSSTLPPESTQVRGYDFNRGVNYRALLEAFGTTGFQATNFGRAVQQVNAMIEKKLEPLSQDEDQHADLTQSRRPLTSCTIFLGYTSNLISSGIRETIRYLVQHNMVDVLVTTAGGVEEDLIKCLAPTYLGEFSLRGKELRENGINRIGNLLVPNENYCKFEDWLMPILDQMVMEQNTEGVKWTPSKMIARLGKEINNPESVYYWAQKNHIPVFSPALTDGSLGDMIFFHSYKNPGLVLDIVEDLRLINTQAIFAKCTGMIILGGGVVKHHIANANLMRNGADYAVYINTAQEFDGSDSGARPDEAVSWGKIRVDAQPVKVYADASLVFPLLVAETFAQKMDAFMHEKNED

The first assay covers variants of B1. The assay is described as follows: MST; read off a plot.
Regarding chain 2 F272A, the EC50 is around 400 nM.

Turning to chain 2 I271A, the EC50 is around 50 nM.

For the variant chain 2 Y176A, the concentration for a half-maximal effect (EC50) is around 700 nM.

chain 2 L295A: the concentration giving a half-maximal response (EC50) is around 300 nM.

As for chain 2 N173A, the concentration giving a half-maximal response (EC50) is around 13000 nM. For the variant chain 2 S240A, the EC50 is around 2000 nM. The same measure, in the same setting: in the case of chain 2 Y250A it was around 45000 nM.

chain 2 Q83A: the EC50 is around 7000 nM.

Consider chain 2 M244A, for which the concentration giving a half-maximal response (EC50) is around 12000 nM.

Variants of B1 are the subject of a further assay. The assay is described as follows: MST; read off a plot. This is another data set of the same source.
On to chain 2 D243A, for which the concentration giving a half-maximal response (EC50) was around 500 nM. Consider chain 2 E137A, for which the concentration for a half-maximal effect (EC50) was around 45 nM. Regarding chain 2 W327A, the half-maximal effective concentration (EC50) was around 600 nM. Regarding chain 2 K329A, the half-maximal effective concentration (EC50) is around 130 nM.

For the variant chain 2 H288A, the 50% effective concentration (EC50) was around 50 nM.

Another assay covers variants of B1. The assay is described as follows: MST; highest eIF5A concentration of the titration, est. 6e-5 M; read off a plot.
As to chain 2 F247A, the response is around 0.33 fraction bound.
